Target: the molecule itself
Experiment: SEC

| Protein | binding result | stoichiometry N |
| --- | --- | --- |
| KicGAS^9-104 (domain or fragment, UniProt Q2HR80 9-104, looked up) KKDLTMEDLTAKISQLTVENRELRKALGSTADPRDRPLTATEKEAQLTATVGALSAAAAKKIEARVRTIFSKVVTQKQVDDALKGLSLRIDVCMSD | binds | – |
| KicGAS L17R (natural protein, UniProt Q2HR80 1-131, looked up) MAAPRGRPKKDLTMEDRTAKISQLTVENRELRKALGSTADPRDRPLTATEKEAQLTATVGALSAAAAKKIEARVRTIFSKVVTQKQVDDALKGLSLRIDVCMSDGGTAKPPPGANNRRRRGASTTRAGVDD | – | 2 |
| KicGAS L35A (natural protein, UniProt Q2HR80 1-131, looked up) MAAPRGRPKKDLTMEDLTAKISQLTVENRELRKAAGSTADPRDRPLTATEKEAQLTATVGALSAAAAKKIEARVRTIFSKVVTQKQVDDALKGLSLRIDVCMSDGGTAKPPPGANNRRRRGASTTRAGVDD | binds | – |
| KicGAS P41S/P45I (natural protein, UniProt Q2HR80 1-131, looked up) MAAPRGRPKKDLTMEDLTAKISQLTVENRELRKALGSTADSRDRILTATEKEAQLTATVGALSAAAAKKIEARVRTIFSKVVTQKQVDDALKGLSLRIDVCMSDGGTAKPPPGANNRRRRGASTTRAGVDD | binds | – |
| KicGAS L35R (natural protein, UniProt Q2HR80 1-131, looked up) MAAPRGRPKKDLTMEDLTAKISQLTVENRELRKARGSTADPRDRPLTATEKEAQLTATVGALSAAAAKKIEARVRTIFSKVVTQKQVDDALKGLSLRIDVCMSDGGTAKPPPGANNRRRRGASTTRAGVDD | binds | – |
